Laboratory results from a protein production outcome set (Wang et al. 2014).

assay: label from the status in PepcDB records

**Q.** For “MSVIATILAYAGLAIVSTVVVWKGSELLESSTEKLSGYYQLPPLVQGSIVLAVGSSFPELSTAVLSAALHGDFELGVAAVVGSALFNILMIPALAGLWAEERLESTRDLIYKETQFYLISIVVLLLMFSFAVIYNPLAGGTDAQVGGVTRGLALLPLALYAVYVYLQYQDTRDHQPEAPPEDIHLPKQGTRLVGSLLIILIGVEGLIRSAVAFGDIFGTPSFLWGITVVAAGTSVPDAFVSIRASRAGNPVTSVANVLGSNIFDLLVCIPAAALVAGTVAINYSVGMPMMGVLSLATLIVLLTMRSEMVLTTPEAWGLIALYLAFVVWMGAETVGTVDLIPHLPPPAHTP”, which protein production is on record?
**A.** failed

**Q.** With “MSVISIILVLIIAFLAGLDGILDQFQFHQPLVSCTLIGLASGHTVAGIMLGGTLQFLALGWANIGAAVAPDVALASTAAAVIMIKGGDFSQKGITIAYGVAVPLAIAGLALTMVVRAISIGIVHGADAAAKNGNIRAVERSHYFALLLQGLRIVFPVALLLALPANHVKSILEAIPSWLSDGMTIGGGMVVAVGYAMILNMMATREVWPFFIIGFVLAAIPDTQITLFGLGMIGVALAMIYIALTNQTGRNSSSGQASSSSNDPIGDILEDY” as the sequence, how does the protein production read?
**A.** failed

**Q.** With “MSVKVSVDDIDGITEVLNVYMNAAESGTGEEMSAAFHKDATIFGYVGDKLAFNGPIKDLYDWHNSNGPAKNVQSRITNIDIVGTVAHARVEAENWTNFKFSDLFLLLKLDGKWTIVNKVFHLHA” as the sequence, how does the protein production read?
**A.** not failed

**Q.** For “MSVLGFDIGNLNCYIGVARQGGIEVITNDYSLHATPACVSFGPKDRSMGVAARQAVTTNIKNTVINFKHLIGRKFSDPVAQRFIPFIPCKVVKLPNDDIGVQVSYLGEPHTFTPEQVLAALLTKLRTIVESQLSDVKKVSDCVLAVPSYFTDVQRRAVLSAIQYAGLNSLRIVNETTAIALAYGIYKQDLPEEDAKSRNVVFLDIGHSSTQASLVAFNRGKLQMVNTSYDLESGGIWFDALIREHFRKEFKTKYGIDAATSPRPWLRLLDECERVKKQMSANQTPIPLNIECFMEDKDVTGKMQRQEFEDLAAPIFNRIKQVLINLFADGVSIKPEEIDEIEIVGGSSRIPMIREIVKDLFGKEPKTTMNQDEAVARGAAMQCAILSPTFRVREFAIKDTQPYRIRLSWNSTGENGGENDVFSPRDEVPFSKLVSLLRSGPFNVEAHYAQPNVVPHNQVHIGSWKVNGARPGADGGNQKVKVKVRVNPDGIFTIASATMYEPRIVEEVPAEAMEVDGDAKTEAPAEPL”, which protein production is on record?
**A.** failed

**Q.** With “MSVLIYVESNGSEIKKSSMDAVAYGTQVASKLGGSAIVVAIGNIPQEQLTALGNFGASKVLHVTGDAFNQNAPLASAAAVVEAAKKAGAKVIVLPKSTLVDSFAPKLASQLKAGVVTNVTELPDTSAGFQVKRSIFTGKAFATVSINTDIKVITLAKNAYQGTETGGTAAVEALSVSLTDADTKVKTTNVEKMSGELLLTEAEIVVSGGRGLKGPENWGVLLDLAKALGAATGCSKPVSDMDWRPHHEHVGQTGVKVAPNLYIAVGISGAIQHLAGVNSSKCIVVINKDPEAPFFKAADYGIVGDLFEVLPKLTEAAKLLK” as the sequence, how does the protein production read?
**A.** failed

**Q.** Which protein production does the source give for “MSVLKEYRTVSEVVGPLMIVDQVAGVHYNELVDITLHNGERRKGQVLEVQGDKAMVQLFEGSTGINLAKTKVRFTGHPLELAVSEDMVGRIFDGMGQPIDGGPELIPEKYLDIDGQAINPVARDYPDEFIQTGISAIDHLNTLVRGQKLPVFSGSGLPHNELAAQIARQATVLNSDDNFAVVFAAMGITFEEAEFFMNDLRETGAIDRSVLFINLANDPAIERIATPRIALTTAEYLAYEKGMHVLVIMTDMTNYCEALREVSAARREVPGRRGYPGYLYTNLSTLYERAGRLIGKKGSVTQIPILTMPEDDITHPIPDLTGYITEGQIILSQELYKNGFRPPINVLPSLSRLKDKGSGEGKTRQDHAATMNQLFAAYAQGKQAKELAVVLGESALSETDKLYVAFTNRFEEEYINQGFYTNRSIEESLDLGWELLSILPRTELKRIKDDMLDRYLPKADTTMTKVFVAND” here?
**A.** failed

**Q.** With “MSVLVVGGDEITPIKAVLENLGCKDITHWDGRRESINRKNIPQNTECLVLLTNFLNHNTMKKFRGEAKKRNIPVVCSKRSVSCLYCEYCKIFGEAAAKNCPLNSFELEHHHHHH” as the sequence, how does the protein production read?
**A.** failed
